Publication PMC4359366, “Lis1 regulates dynein by sterically blocking its mechanochemical cycle” (eLife, 2014)

Key:
[1] = molecular target: GST-dynein_(331kDa) (S. cerevisiae); assay: SEC; 400–800 nM dynein and 475–800 nM Lis1 mixed for 10 min at 4°C; Superose 6 PC 3.2/30; 50 mM Tris–HCl pH 8.0, 150 mM potassium acetate, 2 mM magnesium acetate, 1 mM EGTA, 1 mM DTT; fractions on SDS-PAGE with SYPRO Red, bands quantified in ImageJ
[2] = molecular target: monomeric dynein motor domain, dynein_(331kDa) without tags on the linker (S. cerevisiae); assay: cryo-EM structure; cryo-negative stain EM, single-particle 3D reconstruction; monomeric dynein (80–120 nM) pre-incubated for 10 min with Lis1 dimer at a 1.5-fold excess (120–180 nM); no nucleotide (apyrase 0.14 U/ml, 15 min); 2% uranyl formate
[3] = molecular target: T1, short linker dynein, DYN1_(314kDa), without GFP (S. cerevisiae, UniProt P36022 1365-4092); assay: as above; settings: both partners purified
T1 construct: ZZ tag probably cut off by Tev; also called short linker construct

[4] = molecular target: T2, short linker dynein, GFP-3xHA-DYN1_(314kDa)-gs-DHA, monomeric (S. cerevisiae, UniProt P36022 1365-4092); assay: SEC; 400–800 nM dynein and 475–800 nM Lis1 mixed for 10 min at 4°C; Superose 6 PC 3.2/30; 50 mM Tris–HCl pH 8.0, 150 mM potassium acetate, 2 mM magnesium acetate, 1 mM EGTA, 1 mM DTT; fractions on SDS-PAGE with SYPRO Red, bands quantified in ImageJ; settings: both partners purified
T2 construct: ZZ tag probably cut off by Tev; also called monomeric short linker dynein; short linker construct; not shown: GFP, N-terminal, kept; 3xHA, N-terminal, kept

[5] = molecular target: T3, short linker dynein DYN1_(314kDa) K3438E, R3445E, F3446D (AAA5 linker-docking mutant), monomeric (S. cerevisiae, UniProt P36022 1365-4092, K3438E | R3445E | F3446D); assay: as above; settings: both partners purified
T3 construct: Cytoplasmic dynein heavy chain (DYN1), S. cerevisiae, 314 kDa motor construct DYN1_(314kDa) (linker truncated at residue 1365) with the AAA5 mutations; also called short linker dynein with AAA5 mutations; GFP-3xHA-DYN1_(314kDa)^K3438E,R3445E,F3446D-gs-DHA
T3 sequence (P36022 1365-4092 K3438E/R3445E/F3446D): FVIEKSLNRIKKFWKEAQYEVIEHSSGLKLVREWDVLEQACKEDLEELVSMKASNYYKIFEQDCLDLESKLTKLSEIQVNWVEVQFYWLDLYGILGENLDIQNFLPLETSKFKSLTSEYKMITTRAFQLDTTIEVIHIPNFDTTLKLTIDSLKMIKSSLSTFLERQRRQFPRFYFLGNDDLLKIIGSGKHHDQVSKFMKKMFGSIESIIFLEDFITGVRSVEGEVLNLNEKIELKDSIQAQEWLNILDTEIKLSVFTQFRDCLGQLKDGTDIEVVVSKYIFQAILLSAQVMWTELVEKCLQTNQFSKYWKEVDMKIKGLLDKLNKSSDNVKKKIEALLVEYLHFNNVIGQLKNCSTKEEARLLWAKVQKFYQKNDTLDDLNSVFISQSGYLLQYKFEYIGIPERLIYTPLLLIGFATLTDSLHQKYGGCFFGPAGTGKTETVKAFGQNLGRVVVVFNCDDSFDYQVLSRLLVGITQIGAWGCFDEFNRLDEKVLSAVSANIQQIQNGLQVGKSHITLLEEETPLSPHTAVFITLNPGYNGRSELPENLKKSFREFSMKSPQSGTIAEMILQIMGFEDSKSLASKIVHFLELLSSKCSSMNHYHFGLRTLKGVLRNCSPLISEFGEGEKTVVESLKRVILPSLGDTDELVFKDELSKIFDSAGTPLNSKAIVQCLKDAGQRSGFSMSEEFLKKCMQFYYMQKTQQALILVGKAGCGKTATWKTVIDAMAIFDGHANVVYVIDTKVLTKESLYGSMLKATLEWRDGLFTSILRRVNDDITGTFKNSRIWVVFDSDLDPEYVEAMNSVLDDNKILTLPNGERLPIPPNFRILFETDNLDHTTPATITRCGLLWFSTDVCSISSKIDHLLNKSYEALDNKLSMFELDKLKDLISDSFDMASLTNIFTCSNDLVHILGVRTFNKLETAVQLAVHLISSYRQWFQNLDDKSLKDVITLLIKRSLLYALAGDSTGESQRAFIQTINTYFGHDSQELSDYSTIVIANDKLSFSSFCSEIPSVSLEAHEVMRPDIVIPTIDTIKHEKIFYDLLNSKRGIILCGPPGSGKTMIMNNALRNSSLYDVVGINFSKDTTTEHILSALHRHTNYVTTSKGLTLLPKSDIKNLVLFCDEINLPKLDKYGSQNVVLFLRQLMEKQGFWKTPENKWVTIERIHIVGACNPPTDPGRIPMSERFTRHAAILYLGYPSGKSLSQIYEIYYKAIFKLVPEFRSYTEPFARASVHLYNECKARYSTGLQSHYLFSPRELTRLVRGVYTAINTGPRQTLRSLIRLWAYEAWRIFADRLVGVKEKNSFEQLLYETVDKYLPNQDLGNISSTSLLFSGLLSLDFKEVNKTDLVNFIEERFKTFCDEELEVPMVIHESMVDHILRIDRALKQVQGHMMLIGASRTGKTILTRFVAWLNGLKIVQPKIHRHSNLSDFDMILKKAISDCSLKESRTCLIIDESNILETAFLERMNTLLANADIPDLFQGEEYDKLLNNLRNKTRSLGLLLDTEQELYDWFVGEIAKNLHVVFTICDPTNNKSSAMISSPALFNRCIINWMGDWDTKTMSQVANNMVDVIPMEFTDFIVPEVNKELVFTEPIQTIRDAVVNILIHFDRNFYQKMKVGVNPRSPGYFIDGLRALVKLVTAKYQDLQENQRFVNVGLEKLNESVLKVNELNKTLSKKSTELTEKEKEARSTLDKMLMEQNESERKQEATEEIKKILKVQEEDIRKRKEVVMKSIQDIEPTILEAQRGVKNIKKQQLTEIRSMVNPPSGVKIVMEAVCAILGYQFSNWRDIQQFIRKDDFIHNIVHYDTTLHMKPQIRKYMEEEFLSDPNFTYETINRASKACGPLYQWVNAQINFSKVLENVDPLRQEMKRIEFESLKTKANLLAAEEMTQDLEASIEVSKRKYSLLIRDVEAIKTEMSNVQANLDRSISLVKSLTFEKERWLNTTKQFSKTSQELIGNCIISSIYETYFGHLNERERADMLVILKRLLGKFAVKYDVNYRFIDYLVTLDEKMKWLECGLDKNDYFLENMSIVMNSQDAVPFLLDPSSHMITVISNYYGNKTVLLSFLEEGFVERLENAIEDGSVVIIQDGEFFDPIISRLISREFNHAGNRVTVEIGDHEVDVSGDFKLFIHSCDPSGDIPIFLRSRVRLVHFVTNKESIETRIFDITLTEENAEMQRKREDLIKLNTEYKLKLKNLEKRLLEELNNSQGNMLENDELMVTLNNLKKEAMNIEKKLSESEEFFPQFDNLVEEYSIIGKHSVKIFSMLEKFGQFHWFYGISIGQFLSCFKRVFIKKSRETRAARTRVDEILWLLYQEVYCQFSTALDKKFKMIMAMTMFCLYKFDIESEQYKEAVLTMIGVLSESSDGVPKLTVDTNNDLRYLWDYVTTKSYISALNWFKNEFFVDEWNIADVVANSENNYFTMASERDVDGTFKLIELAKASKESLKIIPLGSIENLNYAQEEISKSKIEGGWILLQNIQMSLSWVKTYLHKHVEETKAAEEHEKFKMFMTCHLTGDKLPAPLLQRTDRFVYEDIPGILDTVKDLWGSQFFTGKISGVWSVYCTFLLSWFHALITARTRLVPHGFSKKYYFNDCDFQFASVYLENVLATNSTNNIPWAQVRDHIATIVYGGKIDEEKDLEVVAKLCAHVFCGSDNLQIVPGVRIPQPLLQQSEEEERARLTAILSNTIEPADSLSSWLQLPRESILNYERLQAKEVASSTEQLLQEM

T1 sequence (P36022 1365-4092): as the sequence (P36022 1365-4092 K3438E/R3445E/F3446D) above, with E2074K, E2081R, D2082F counted along it
T2 sequence (P36022 1365-4092): as the sequence (P36022 1365-4092 K3438E/R3445E/F3446D) above, with E2074K, E2081R, D2082F counted along it

GST-dynein (331kDa) share of the dynein:Lis1 band ratio in the SEC complex peak [1] | Lis1 share of the dynein:Lis1 band ratio in the SEC complex peak [1] | stoichiometry N (Lis1 propeller per dynein motor domain) [2] | binding result [3] | binding result [4] | binding result [5] | Binder
0.88 | 0.12 | – | – | – | – | Lis1^R301A (natural protein) MTNWQQQLPLTDTQKNELDKSVLRYLNWNYKQTVRHEHAQDYESVRHAIVTLSGFLLQESVDRQEFISNNDTSNESMVDIDELLLPKKWNSIVRLQKKIIELEQNTETLVSQIKDLNTQVSELAQFKPTTSNGTSAHNVLKWIPRNLPSCLINVESSVTSVKLHPNLPIVFVATDHGKLYAFDLFNYTIPLASLQSHTKAITSMDVLFTNYTNSSKKNYLVIVTASKDLQIHVFKWVSEECKFQQIRSLLGHEHIVSAVKIWQKNNDVHIASCSRDQTVKIWDFHNGWSLKTFQPHSQWVASIDVLGDYIISGSHDTTLRLTHWPSGNGLSVGTGHEFPIEKVKFIHFIEDSPEIRFRTPSTDRYKNWGMQYCVSASRDRTIKIWEIPLPTLMAHRAPIPNPTDSNFRCVLTLKGHLSWVRDISIRGQYLFSCADDKSVRCWDLNTGQCLHVWEKLHTGFVNCLDLDVDFDSNVTPRQMMVTGGLDCKSNVFMR
0.85 | 0.15 | – | – | – | – | Lis1^K437A (natural protein) MTNWQQQLPLTDTQKNELDKSVLRYLNWNYKQTVRHEHAQDYESVRHAIVTLSGFLLQESVDRQEFISNNDTSNESMVDIDELLLPKKWNSIVRLQKKIIELEQNTETLVSQIKDLNTQVSELAQFKPTTSNGTSAHNVLKWIPRNLPSCLINVESSVTSVKLHPNLPIVFVATDHGKLYAFDLFNYTIPLASLQSHTKAITSMDVLFTNYTNSSKKNYLVIVTASKDLQIHVFKWVSEECKFQQIRSLLGHEHIVSAVKIWQKNNDVHIASCSRDQTVKIWDFHNGWSLKTFQPHSQWVRSIDVLGDYIISGSHDTTLRLTHWPSGNGLSVGTGHEFPIEKVKFIHFIEDSPEIRFRTPSTDRYKNWGMQYCVSASRDRTIKIWEIPLPTLMAHRAPIPNPTDSNFRCVLTLKGHLSWVRDISIRGQYLFSCADDASVRCWDLNTGQCLHVWEKLHTGFVNCLDLDVDFDSNVTPRQMMVTGGLDCKSNVFMR
0.82 | 0.18 | 1 | binds | binds | binds | Lis1 (Pac1), wild type, dimer (natural protein, S. cerevisiae, UniProt P39946 1-494, looked up, Lis1 ortholog Pac1 (PAC1), S. cerevisiae; genomic PAC1 copy with ZZ-Tev in front; A Tev site follows the ZZ tag and a TEV buffer is named for the Lis1 purification, so the ZZ tag was probably cut off; also called WT Lis1; wild-type Lis1) MTNWQQQLPLTDTQKNELDKSVLRYLNWNYKQTVRHEHAQDYESVRHAIVTLSGFLLQESVDRQEFISNNDTSNESMVDIDELLLPKKWNSIVRLQKKIIELEQNTETLVSQIKDLNTQVSELAQFKPTTSNGTSAHNVLKWIPRNLPSCLINVESSVTSVKLHPNLPIVFVATDHGKLYAFDLFNYTIPLASLQSHTKAITSMDVLFTNYTNSSKKNYLVIVTASKDLQIHVFKWVSEECKFQQIRSLLGHEHIVSAVKIWQKNNDVHIASCSRDQTVKIWDFHNGWSLKTFQPHSQWVRSIDVLGDYIISGSHDTTLRLTHWPSGNGLSVGTGHEFPIEKVKFIHFIEDSPEIRFRTPSTDRYKNWGMQYCVSASRDRTIKIWEIPLPTLMAHRAPIPNPTDSNFRCVLTLKGHLSWVRDISIRGQYLFSCADDKSVRCWDLNTGQCLHVWEKLHTGFVNCLDLDVDFDSNVTPRQMMVTGGLDCKSNVFMR
0.85 | 0.15 | – | – | – | – | Lis1^R275A (natural protein) MTNWQQQLPLTDTQKNELDKSVLRYLNWNYKQTVRHEHAQDYESVRHAIVTLSGFLLQESVDRQEFISNNDTSNESMVDIDELLLPKKWNSIVRLQKKIIELEQNTETLVSQIKDLNTQVSELAQFKPTTSNGTSAHNVLKWIPRNLPSCLINVESSVTSVKLHPNLPIVFVATDHGKLYAFDLFNYTIPLASLQSHTKAITSMDVLFTNYTNSSKKNYLVIVTASKDLQIHVFKWVSEECKFQQIRSLLGHEHIVSAVKIWQKNNDVHIASCSADQTVKIWDFHNGWSLKTFQPHSQWVRSIDVLGDYIISGSHDTTLRLTHWPSGNGLSVGTGHEFPIEKVKFIHFIEDSPEIRFRTPSTDRYKNWGMQYCVSASRDRTIKIWEIPLPTLMAHRAPIPNPTDSNFRCVLTLKGHLSWVRDISIRGQYLFSCADDKSVRCWDLNTGQCLHVWEKLHTGFVNCLDLDVDFDSNVTPRQMMVTGGLDCKSNVFMR
